Data: the supplement of paper PMC12636428

The sequences below were run on Saccharomyces cerevisiae (assay: transcriptional activation domain activity (GFP:mCherry ratio, weighted mean of sorted bins, harmonized to initial dataset scale) (arbitrary fluorescence ratio units); higher = stronger transcriptional activation). Details: beta-estradiol 1 µM; induction time 4 h.
Description: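 53-aa protein tiles (fungal proteins plus yeast TF control tiles) fused C-terminally to a DBD-estrogen-binding domain-mCherry synthetic TF, integrated in S. cerevisiae (URA3 locus) with a GFP reporter. Cells were induced with 1 uM beta-estradiol for 4 h at 30 C, FACS-sorted into 8 bins by GFP:mCherry ratio and barcodes sequenced. Activity is the read-weighted mean bin fluorescence (GFP:mCherry), averaged over barcodes (median 12); tiles under 50 reads were discarded. New active-learning values were harmonized by linear fit onto the scale of the initial (Hummel et al.) dataset. The assay saturates at low and high signal.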

Row | Sequence | transcriptional activation domain activity
1 | RHHPEIINALVTLIATASTTHVKYTFQGILDHYSYYVLVDGFTLKQLTWMQGI | 62700
2 | SFTRRLILWNVCALGIIIVLASRRLLRCILLRKKKFDDTMEFSMLSLIFDLCV | 71800
3 | EQVAPKFWKHGLFWAMCNEGMWLKELEFYYMINYYFKYLELLDTVFLALKKKP | 40200
4 | LQLEMMEGIEDLDLEFDRMLDDFIIINFFIGNDFLPELPMLMVNDGAVPVILS | 85100
5 | RSMLFPKPSGFKFYRDSFRYISVMACVAMLGFIATFINFIRLGIAWHLIIVRA | 54400
6 | GLFRVAGRVLHVNRLNDDFDAGADYDLRKATPADLDPHVVASVLKSYLRTLRG | 27100
7 | HSKHSAEGIVVSKYLMCFLLFCVWIFTHLVEVAVLLLQIIYNTLFILRSLFLH | 63800
8 | MLVLILTLYYFSNYLKSTHQLLSMNLLSSDDLCGILVRDNIIFSILFTFPKIL | 63200
9 | IKQQWSVFVLWSIWYRIAFTPVFWRNLGRRNLGGLIMILMNEYREVILFYWDM | 48500
10 | KLEHEPGPEPKPEAEEKPKKARGRPKKAIPEGGYTPKKARGRPKKVLDPEAEV | 14000
11 | TSAFGQTNNAASPFGGTSNTAAGGFGSPATGGFGTNTAGGAFGSKPAFGATTT | 38300
12 | RALPPFFSFFPFFRSCPLPLLSLPFSHPCFPLRLVSFFFFLLFCFSFFFILTC | 32900
13 | EKKGKEGKRMRREKREIKEPEEKWEEKKKKPEEPEDVGARPRKPRREESKSRA | 37600
14 | NAEYICHYKGGLIGKHFKSLAQVMPFLIQDLLLRTVLDGWTCIGELVVYVWHM | 65800
15 | WQTALVHKHAQRVIHSTLEVVDQLVPKHYDHQLLRRCWGALNLIMTYVSFMCV | 41400
16 | LADNKFSYLPPTLEELMEEQDCNNGRSFKNFMFSNDTGIDGSAGTDDDYTKVL | 60000
17 | GEKRKRGGEGKGEDDDDDDDDDRGQEGDGKRGSEDTGGGSKKGRRRRKRGKGH | 22600
18 | DKNYNNLTVYNFVYLFGGRVHLYKNLTFHVVVTYVCVISSIVFFLVFIAKWYW | 52100
19 | EADEEAAKAEHVHAPGEGGEGEGGGGPRRLEGKEGEREQKEIERQKKAEKDEK | 44400
20 | VWFKIVWAWLYVFTSTWLLGVFLSYVKWWLLWVPWFLRSRVRCCVFLAILYIV | 73800

Row | Sequence | transcriptional activation domain activity
21 | PAANNPTGTLSSDELTFTHDLIEKVFNCNDKLSDNYNTQILSNTEHPLLTSYK | 73500
22 | KARPRQEGGQRQESGKKRKRDEDEGGDGQEGGEGGRKRRRKRKGAGGADDGVQ | 33400
23 | KTHPQASAEADGEEDAEPEGQAKSRQPSRRRQSRGRGRRGGPQESDTESIARS | 19300
24 | QYETPAPKDFLDDFVSLTDFFTFFDDPVDLYDVGSFAFQQPHSMNIDFDPAML | 152000
25 | DETLAYIARRHNYTGKSLILPPTEITLRFFAHVARVMELSMADLLIALVYVRR | 50100
26 | PQPAAGKRKRGRPRTSLPESEPRSEDRRSNTPSAAPQQSAKKSRGRPPKAASK | 38800
27 | PRVVELQKEVIAYNKRLLALNIRDHQVQYAKLNIFYCFGLFWYRVLKLLVLSA | 38500
28 | RKARQAQGAQGGGGGGAGGPGARGGARGGRVGGERGGRGGGRGGERGRGRGRG | 51400
29 | VMHALWNRWIFFNRSLFLGNQHEGVRAFITEYWRMIRLAAGWDVLRWWLLILC | 51800
30 | MLLICMSVWLCALSLCILRCRENFFVLMGDVFFFLASMWYGTVSQFVRRPLFH | 48100
31 | MYTHALDPHDAANGLYSCLPCFYIFISTDDVARKIVLVPCIPLLKYALHAIQL | 61900
32 | RPSSPPRRPPPSSPSPAPPSKSPATCRSKTSPWGHGRCRPRPPARAPASGTAP | 45200
33 | DEVLKPLWLGIRLHRGKGLAAFLKAIGFIIPLMDPNTLTVILIREFQTSDEEM | 15100
34 | MCIKLPLYPASFFIHRSLPLITSVFDLNLTLMVSLCPRIVPISFFACALLLVP | 53000
35 | VSLRSLPYEVGFKQNFNLILNHDASLIKTTVRHLLVYCSLIKAIKLCLIFINK | 52500
36 | MVCCAFFVVFFLIEIFIILFLCLPFFSFLFLLWEGRVGGYALWLLSVQVCVRT | 55800
37 | MLPDEVSPWFQEVFIPTLLAYCGTFQHPWDLPQPFEDIIAELWPFVFPLSLPY | 68000
38 | LYHALRLCLKFFVVSLVADPEFQRELDYFMKNKPWFIRWPAVFSLNMVWNYTK | 42600
39 | MFLCFFHVFMLYLCHYVIVMLIYFLIYFMLFLLFMFLNTILQYEFLILHFCFI | 47500
40 | KPHHKWIVPTPFSSHAFHPVDGYAQSVPYHLFVFIFPMQRHLYLFLFVAVNFW | 44100
